Measured values as given in the supplement of paper PMC9112550, “Optimization of the antimicrobial peptide Bac7 by deep mutational scanning” (BMC Biology, 2022).

System: Escherichia coli TOP10
Experiment: shrunken log2 fold change of peptide-encoding DNA abundance (4.5 h post-induction vs induction); higher = less antimicrobial activity (less host growth inhibition)
Details: time post-induction: 4.5 h; library: site-saturation at positions 5, 18, 19, 20
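Further: peptides expressed intracellularly from a pBAD plasmid library in pooled LB shake-flask culture, induced with 0.3% L-arabinose, DNA abundance read by NGS, three biological replicates, DESeq2 with apeglm shrinkage.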

Sequence | shrunken log2 fold change
RRIRGRPPRLPRPRPRPPQSPRP | 1.27
RRIRMRPPRLPRPRPRPIQPPRP | 0.122
RRIRCRPPRLPRPRPRPFQHPRP | -0.221
RRIRRRPPRLPRPRPRPQSPPRP | 0.281
RRIRMRPPRLPRPRPRPRCEPRP | 0.704
RRIRKRPPRLPRPRPRPEEDPRP | 0.0229
RRIRQRPPRLPRPRPRPDDRPRP | -0.000777
RRIRMRPPRLPRPRPRPPVMPRP | 0.616
RRIRARPPRLPRPRPRPRWEPRP | 0.431
RRIRLRPPRLPRPRPRPSWDPRP | -0.0231
RRIRYRPPRLPRPRPRPTQCPRP | -0.0863
RRIRLRPPRLPRPRPRPKMLPRP | -0.0541
RRIRARPPRLPRPRPRPVYIPRP | -0.355
RRIRARPPRLPRPRPRPSGPPRP | 0.0223
RRIRDRPPRLPRPRPRPVQHPRP | -0.012
RRIRMRPPRLPRPRPRPKELPRP | 0.642
RRIRARPPRLPRPRPRPKCEPRP | 0.367
RRIRYRPPRLPRPRPRPIFEPRP | -0.833
RRIRVRPPRLPRPRPRPIIEPRP | -0.087
RRIRSRPPRLPRPRPRPCHRPRP | -0.0558
RRIRWRPPRLPRPRPRPVYQPRP | -0.196
RRIRDRPPRLPRPRPRPDALPRP | 0.306
RRIRSRPPRLPRPRPRPSNLPRP | -0.193

Sequence | shrunken log2 fold change
RRIRSRPPRLPRPRPRPAYQPRP | -0.151
RRIRMRPPRLPRPRPRPVVQPRP | -0.0427
RRIRVRPPRLPRPRPRPNIFPRP | -0.234
RRIRVRPPRLPRPRPRPVWKPRP | 0.0859
RRIRMRPPRLPRPRPRPDNFPRP | -0.184
RRIRRRPPRLPRPRPRPHMYPRP | -0.272
RRIRVRPPRLPRPRPRPYKNPRP | -0.848
RRIRFRPPRLPRPRPRPFVIPRP | -0.479
RRIRWRPPRLPRPRPRPMPRPRP | 0.623
RRIRMRPPRLPRPRPRPMHTPRP | 3.3
RRIRPRPPRLPRPRPRPVFDPRP | 0.342
RRIRARPPRLPRPRPRPFHAPRP | -0.0904
RRIRFRPPRLPRPRPRPKERPRP | 0.193
RRIRGRPPRLPRPRPRPQWGPRP | 0.376
RRIRWRPPRLPRPRPRPSGTPRP | 0.0142
RRIRHRPPRLPRPRPRPEAPPRP | 0.641
RRIRKRPPRLPRPRPRPCQFPRP | -0.117
RRIRYRPPRLPRPRPRPISAPRP | -0.373
RRIRVRPPRLPRPRPRPMKKPRP | 0.0174
RRIRERPPRLPRPRPRPGERPRP | 0.104
RRIRYRPPRLPRPRPRPFHVPRP | -0.184
RRIRGRPPRLPRPRPRPWHKPRP | -0.299
RRIRVRPPRLPRPRPRPMYTPRP | -0.23

Sequence | shrunken log2 fold change
RRIRERPPRLPRPRPRPKEPPRP | 0.131
RRIRRRPPRLPRPRPRPCLMPRP | 0.434
RRIRMRPPRLPRPRPRPSDPPRP | -0.0636
RRIRVRPPRLPRPRPRPRTSPRP | 0.0612
RRIRLRPPRLPRPRPRPRVPPRP | 0.264
RRIRHRPPRLPRPRPRPATIPRP | -0.281
RRIRVRPPRLPRPRPRPCPCPRP | -0.151
RRIRFRPPRLPRPRPRPHYPPRP | -0.178
RRIRARPPRLPRPRPRPVCFPRP | 0.489
RRIRFRPPRLPRPRPRPKRSPRP | 1.12
RRIRPRPPRLPRPRPRPPYQPRP | 0.249
RRIRHRPPRLPRPRPRPPNKPRP | -0.171
RRIRCRPPRLPRPRPRPAQDPRP | 0.289
RRIRVRPPRLPRPRPRPNILPRP | -0.426
RRIRDRPPRLPRPRPRPPWNPRP | -0.0258
RRIRQRPPRLPRPRPRPWGTPRP | -0.239
RRIRLRPPRLPRPRPRPHLWPRP | 0.0492
RRIRTRPPRLPRPRPRPEKLPRP | -0.0188
RRIRYRPPRLPRPRPRPYTIPRP | -0.0225
RRIRVRPPRLPRPRPRPKIQPRP | -0.0896
RRIRDRPPRLPRPRPRPTVNPRP | 0.0689
RRIRDRPPRLPRPRPRPNKDPRP | -0.951
RRIRRRPPRLPRPRPRPPKIPRP | 0.403

Sequence | shrunken log2 fold change
RRIRKRPPRLPRPRPRPLFTPRP | 0.331
RRIRTRPPRLPRPRPRPETLPRP | 0.0577
RRIRCRPPRLPRPRPRPVAWPRP | 0.163
RRIRCRPPRLPRPRPRPKDWPRP | 0.378
RRIRDRPPRLPRPRPRPLMGPRP | 0.0162
RRIRDRPPRLPRPRPRPYPAPRP | -0.15
RRIRMRPPRLPRPRPRPMYVPRP | 0.115
RRIRSRPPRLPRPRPRPDANPRP | 0.183
RRIRQRPPRLPRPRPRPHQTPRP | -0.0333
RRIRWRPPRLPRPRPRPHYMPRP | -0.825
RRIRTRPPRLPRPRPRPYHYPRP | -0.185
RRIRGRPPRLPRPRPRPMRAPRP | 1.74
RRIRNRPPRLPRPRPRPLHVPRP | 0.251
RRIRPRPPRLPRPRPRPQCGPRP | -0.0915
RRIRVRPPRLPRPRPRPLSYPRP | -0.18
RRIRIRPPRLPRPRPRPEKEPRP | -0.00237
RRIRKRPPRLPRPRPRPPPMPRP | 0.826
RRIRRRPPRLPRPRPRPVMSPRP | 0.042
RRIRCRPPRLPRPRPRPCQSPRP | 0.00299
RRIRLRPPRLPRPRPRPRWIPRP | -0.074
RRIRRRPPRLPRPRPRPYWMPRP | -0.205
RRIRIRPPRLPRPRPRPPYQPRP | 2.02
